Patent US8673306B2, “Compositions and methods of use for antibodies of dickkopf-1” (Novartis AG, priority 2006, dated 2014)
Positions count from the first letter of the chain named. Marks after values point to notes of the source that are not given here. Blank lines part the entries; values can stand above or below the molecule they belong to.

Experiments:
[1] = target: T1, DKK1/LRP6 binding on cell surface (Homo sapiens, UniProt O94907); assay: DKK1-GFP binding to LRP6 on HEK293T cell surface, fluorescence microscopy; type: cell-based; details: HEK293T transfected with LRP6 and MESD
T1 construct: made in house; LRP6 and MESD transiently transfected into HEK293T
T1 sequence (O94907 32-266): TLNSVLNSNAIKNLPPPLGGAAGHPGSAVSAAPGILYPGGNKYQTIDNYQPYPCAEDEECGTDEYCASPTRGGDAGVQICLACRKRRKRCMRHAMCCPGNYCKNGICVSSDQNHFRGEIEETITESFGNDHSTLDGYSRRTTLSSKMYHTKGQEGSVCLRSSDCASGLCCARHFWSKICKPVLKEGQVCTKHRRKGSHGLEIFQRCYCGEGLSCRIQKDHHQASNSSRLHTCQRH
Experimental: However, upon co-transfection of LRP6 with a surface trafficking chaperone protein, MESD, GFP-tagged DKK1 can be detected on the cell surface, illustrating the specific nature of the DKK1/LRP6 interaction.
The ability of MOR04910 to inhibit DKK1/LRP6 binding on cell surface is measured by fluorescence microscopy. HEK293T cells are either mock transfected and transiently transfected with plasmids encoding LRP6 and MESD. Cells are incubated with DKK1-GFP conditioned medium together with anti-lysozyme FAb or anti-DKK1 FAb MOR04910 for 1 hour at 37° C., and examined by fluorescence microscopy. GFP fluorescence reflects DKK1-GFP binding to overexpressed LRP6 on the plasma membrane.

[2] = Fab stability and aggregation (size exclusion chromatography); type: physicochemical; details: Fab after purification
[3] = target: T2, human recombinant, biotinylated DKK1 (Homo sapiens, UniProt O94907); assay: ELISA binding of matured Fabs in presence of 50% human serum; details: Fab 1 μg/ml
T2 sequence (O94907 32-266): T1 sequence (O94907 32-266)
Experimental: Binding specificity of the matured Fabs in the presence of 50% human serum (HS) is determined. Serial dilutions of human recombinant, biotinylated DKK1 in TBS are Coated onto Neutravidin microtiter plates for 2 h at room temperature, from 8 ng DKK1 per well to a concentration of 125 ng DKK1 per well. After coating of the antigen, wells are blocked with TBS/0.05% Tween (TBS-T) supplemented with 1% BSA for 1 h at room temperature. Purified Fabs described above are diluted either in TBS/4% BSA or TBS/50% HS at a final concentration of 1 μg/ml, added to the coated and blocked wells and the plates are incubated for 1 h at room temperature. For detection, an anti-FLAG alkaline phosphatase (AP)-conjugated antibody (1:5000 dilution in TBST) and the fluorogenic substrate AttoPhos (Roche) are used. After each incubation, the wells of the microtiter plates are washed with TBST five times, except after the final incubation step with the labeled secondary antibody when wells are washed three times.
The fluorescence is measured in a TECAN Spectrafluor plate reader. Table 8 summarizes the binding activity of the optimized anti-DKK1 Fabs in presence of 50% human serum compared to binding activity in 4% BSA, which ranges from 83% to 100%. The median value is found to be 93%, thus the anti-DKK1 Fabs are found to fully bind to target in the presence of human serum.

inhibition of DKK1/LRP6 binding on cell surface [1]: specifically blocks this interaction
B1: MOR04910: affinity-optimized Fab from MOR04461; VH SEQ ID NO: 11, VL SEQ ID NO: 30; also used as MOR4910 IgG (antibody, listed as Homo sapiens, V domains shown)
VH: QVQLVESGGGLVQPGGSLRLSCAASGFTFSSYWMSWVRQAPGKGLEWVSGISYSGSNTHYADSVKGRFTISRDNSKNTLYLQMNSLRAEDTAVYYCARMGIDLDYWGQGTLVTVSS
VL: DIALTQPASVSGSPGQSITISCTGTSSDVGGFNYVSWYQQHPGKAPKLMIHDGSNRPSGVSNRFSGSKSGNTASLTISGLQAEDEADYYCQSWDVSPITAVFGGGTKLTVLGQ

B2: MOR04461: parental HuCAL GOLD anti-DKK1 Fab; VH SEQ ID NO: 5, VL SEQ ID NO: 24 (antibody, listed as Homo sapiens, V domains shown)
VH: B1 VH
VL: DIALTQPASVSGSPGQSITISCTGTSSDVGGFNYVSWYQQHPGKAPKLMIHDGSNRPSGVSNRFSGSKSGNTASLTISGLQAEDEADYYCSTWDMTVDFVFGGGTKLTVLGQ
Size exclusion chromatography [2]: # (monomeric portion >90%)

B3: MOR04470: parental HuCAL GOLD anti-DKK1 Fab; VH SEQ ID NO: 6, VL SEQ ID NO: 25 (antibody, listed as Homo sapiens, V domains shown)
VH: B1 VH with G50V, Y53S, S54D, G55S, N57S, H59Y, M99H, L103F, Y105H
VL: DIALTQPASVSGSPGQSITISCTGTSSDLGGYNYVSWYQQHPGKAPKLMIYDVNNRPSGVSNRFSGSKSGNTASLTISGLQAEDEADYYCQSYASGNTKVVFGGGTKLTVLGQ
Size exclusion chromatography [2]: # (monomeric portion >90%)

Binding activity w/50% Human serum vs 4% BSA (%) [3]: 83* %
B4: MOR04914: affinity-optimized Fab from MOR04470; VH SEQ ID NO: 14, VL SEQ ID NO: 33 (antibody, listed as Homo sapiens, V domains shown)
VH: B1 VH with G50V, Y53S, S54D, G55S, N57S, H59Y, M99H, L103F, Y105H
VL: B3 VL with A94T, S95Y, G96T, N97P, T98I, K99S, V100P

Binding activity w/50% Human serum vs 4% BSA (%) [3]: 93* %
B5: MOR04921: affinity-optimized Fab from MOR04461; VH SEQ ID NO: 12, VL SEQ ID NO: 31 (antibody, listed as Homo sapiens, V domains shown)
VH: B1 VH
VL: B1 VL with S92T, D94A, V95T, I98L, T99S, A100S

B6: MOR04456: parental HuCAL GOLD anti-DKK1 Fab; VH SEQ ID NO: 4, VL SEQ ID NO: 23 (antibody, listed as Homo sapiens, V domains shown)
VH: QVQLVESGGGLVQPGGSLRLSCAASGFTFNNYGMTWVRQAPGKGLEWVSGISGSGSYTYYADSVKGRFTISRDNSKNTLYLQMNSLRAEDTAVYYCARTIYMDYWGQGTLVTVSS
VL: DIVLTQSPATLSLSPGERATLSCRASQNLFSPYLAWYQQKPGQAPRLLIYGASNRATGVPARFSGSGSGTDFTLTISSLEPEDFATYYCQQYGDEPITFGQGTKVEIKRT
Size exclusion chromatography [2]: # (monomeric portion >90%)

Binding activity w/50% Human serum vs 4% BSA (%) [3]: >83* %
B7: MOR04907: affinity-optimized Fab from MOR04456; VH SEQ ID NO: 8, VL SEQ ID NO: 27 (antibody, listed as Homo sapiens, V domains shown)
VH: B6 VH
VL: B6 VL with T86V, G93L, D94S, E95L, I97T

Binding activity w/50% Human serum vs 4% BSA (%) [3]: >83* %
B8: MOR04954: affinity-optimized Fab from MOR04470; VH SEQ ID NO: 18, VL SEQ ID NO: 37 (antibody, listed as Homo sapiens, V domains shown)
VH: QVQLVESGGGLVQPGGSLRLSCAASGFTFSSYWMSWVRQAPGKGLEWVSVIEHKDKGGTTYYAASVKGRFTISRDNSKNTLYLQMNSLRAEDTAVYYCARHGIDFDHWGQGTLVTVSS
VL: B3 VL

B9: MOR04455: parental HuCAL GOLD anti-DKK1 Fab; VH SEQ ID NO: 3, VL SEQ ID NO: 22 (antibody, listed as Homo sapiens, V domains shown)
VH: QVQLVESGGGLVQPGGSLRLSCAASGFTFSSYGMSWVRQAPGKGLEWVSGISGSGSYTYYADSVKGRFTISRDNSKNTLYLQMNSLRAEDTAVYYCARHYMDHWGQGTLVTVSS
VL: DIQMTQSPSSLSASVGDRVTITCRASQDISNYLHWYQQKPGKAPKLLIYGASNLQSGVPSRFSGSGSGTDFTLTISSLQPEDFAVYYCQQYDSIPMTFGQGTKVEIKRT
Size exclusion chromatography [2]: # (monomeric portion >90%)

B10: MOR04454: parental HuCAL GOLD anti-DKK1 Fab; VH SEQ ID NO: 2, VL SEQ ID NO: 21 (antibody, listed as Homo sapiens, V domains shown)
VH: QVQLVESGGGLVQPGGSLRLSCAASGFTFSNYGLHWVRQAPGKGLEWVSSISYYGSSTYYADSVKGRFTISRDNSKNTLYLQMNSLRAEDTAVYYCARDGSHMDKPPGYVFAFWGQGTLVTVSS
VL: DIQMTQSPSSLSASVGDRVTITCRASQGIKNYLNWYQQKPGKAPKLLIGAASSLQSGVPSRFSGSGSGTDFTLTISSLQPEDFATYYCLQYYGMPPTFGQGTKVEIKRT
Size exclusion chromatography [2]: # (monomeric portion >90%)

B11: MOR04516: parental HuCAL GOLD anti-DKK1 Fab; VH SEQ ID NO: 7, VL SEQ ID NO: 26 (antibody, listed as Homo sapiens, V domains shown)
VH: QVQLVQSGAEVKKPGESLKISCKGSGYSFTNYYIGWVRQMPGKGLEWMGIIYPTDSYTNYSPSFQGQVTISADKSISTAYLQWSSLKASDTAMYYCARGIPFRMRGFDYWGQGTLVTVSS
VL: DIVLTQPPSVSGAPGQRVTISCSGSSSNIGSSFVNWYQQLPGTAPKLLIGNNSNRPSGVPDRFSGSKSGTSASLAITGLQSEDEADYYCASFDMGSPNVVFGGGTKLTVLGQ
Size exclusion chromatography [2]: # (monomeric portion >90%)
